The values below are quoted from earlier work in US20080095848A1, “Pharmaceutical Composition For Topical Use In Form Of Xerogels Or Films And Methods For Production” (Ludwig-maximilian-University, priority 2004, published 2008).

For the data set the following is noted: aqueous formulation, within two weeks.

B1: EGF: growth factor; wound healing factor, protein unstable in aqueous formulation (protein, UniProt P01133 23-1207, looked up)
Pro-epidermal growth factor: PQHWSCPEGTLAGNGNSTCVGPAPFLIFSHGNSIFRIDTEGTNYEQLVVDAGVSVIMDFHYNEKRIYWVDLERQLLQRVFLNGSRQERVCNIEKNVSGMAINWINEEVIWSNQQEGIITVTDMKGNNSHILLSALKYPANVAVDPVERFIFWSSEVAGSLYRADLDGVGVKALLETSEKITAVSLDVLDKRLFWIQYNREGSNSLICSCDYDGGSVHISKHPTQHNLFAMSLFGDRIFYSTWKMKTIWIANKHTGKDMVRINLHSSFVPLGELKVVHPLAQPKAEDDTWEPEQKLCKLRKGNCSSTVCGQDLQSHLCMCAEGYALSRDRKYCEDVNECAFWNHGCTLGCKNTPGSYYCTCPVGFVLLPDGKRCHQLVSCPRNVSECSHDCVLTSEGPLCFCPEGSVLERDGKTCSGCSSPDNGGCSQLCVPLSPVSWECDCFPGYDLQLDEKSCAASGPQPFLLFANSQDIRHMHFDGTDYGTLLSQQMGMVYALDHDPVENKIYFAHTALKWIERANMDGSQRERLIEEGVDVPEGLAVDWIGRRFYWTDRGKSLIGRSDLNGKRSKIITKENISQPRGIAVHPMAKRLFWTDTGINPRIESSSLQGLGRLVIASSDLIWPSGITIDFLTDKLYWCDAKQSVIEMANLDGSKRRRLTQNDVGHPFAVAVFEDYVWFSDWAMPSVMRVNKRTGKDRVRLQGSMLKPSSLVVVHPLAKPGADPCLYQNGGCEHICKKRLGTAWCSCREGFMKASDGKTCLALDGHQLLAGGEVDLKNQVTPLDILSKTRVSEDNITESQHMLVAEIMVSDQDDCAPVGCSMYARCISEGEDATCQCLKGFAGDGKLCSDIDECEMGVPVCPPASSKCINTEGGYVCRCSEGYQGDGIHCLDIDECQLGEHSCGENASCTNTEGGYTCMCAGRLSEPGLICPDSTPPPHLREDDHHYSVRNSDSECPLSHDGYCLHDGVCMYIEALDKYACNCVVGYIGERCQYRDLKWWELRHAGHGQQQKVIVVAVCVVVLVMLLLLSLWGAHYYRTQKLLSKNPKNPYEESSRDVRSRRPADTEDGMSSCPQPWFVVIKEHQDLKNGGQPVAGEDGQAADGSMQPTSWRQEPQLCGMGTEQGCWIPVSSDKGSCPQVMERSFHMPSYGTQTLEGGVEKPHSLLSANPLWQQRALDPPHQMELTQ
modifications: Pro-epidermal growth factor
With B1, the loss of activity is on record as 40%.
